T1: EphA8(h) (human, UniProt P29322 564-1005, limits assumed)
T1 sequence (looked up): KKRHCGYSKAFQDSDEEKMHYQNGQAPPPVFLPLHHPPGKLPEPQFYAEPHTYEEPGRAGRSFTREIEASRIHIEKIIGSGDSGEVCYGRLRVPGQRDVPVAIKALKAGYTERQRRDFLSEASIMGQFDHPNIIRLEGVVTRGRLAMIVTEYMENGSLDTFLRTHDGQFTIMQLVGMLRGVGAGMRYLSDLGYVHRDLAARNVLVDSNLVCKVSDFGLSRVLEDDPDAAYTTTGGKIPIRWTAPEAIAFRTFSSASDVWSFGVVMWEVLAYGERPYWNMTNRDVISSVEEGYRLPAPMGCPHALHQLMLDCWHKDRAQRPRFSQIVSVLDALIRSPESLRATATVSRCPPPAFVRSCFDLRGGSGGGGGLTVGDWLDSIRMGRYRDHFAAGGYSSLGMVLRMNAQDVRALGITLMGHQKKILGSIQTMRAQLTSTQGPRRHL

T2: Ret(V804L)(h) (human, UniProt P07949 658-1114, limits assumed)
T2 sequence (looked up): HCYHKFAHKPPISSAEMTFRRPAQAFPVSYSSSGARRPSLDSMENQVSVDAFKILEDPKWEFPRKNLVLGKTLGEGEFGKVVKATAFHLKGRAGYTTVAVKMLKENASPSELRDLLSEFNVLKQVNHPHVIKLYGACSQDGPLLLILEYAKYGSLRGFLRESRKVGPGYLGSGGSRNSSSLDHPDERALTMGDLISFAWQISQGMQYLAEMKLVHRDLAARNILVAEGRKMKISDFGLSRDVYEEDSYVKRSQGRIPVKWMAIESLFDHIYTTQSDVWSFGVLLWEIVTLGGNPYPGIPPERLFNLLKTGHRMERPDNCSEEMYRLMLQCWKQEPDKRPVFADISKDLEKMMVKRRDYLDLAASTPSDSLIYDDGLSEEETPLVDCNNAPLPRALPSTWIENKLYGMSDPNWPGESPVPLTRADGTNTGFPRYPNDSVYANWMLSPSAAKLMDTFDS

T3: NEK11(h) (human, UniProt Q8NG66 1-645, limits assumed)
T3 sequence (looked up): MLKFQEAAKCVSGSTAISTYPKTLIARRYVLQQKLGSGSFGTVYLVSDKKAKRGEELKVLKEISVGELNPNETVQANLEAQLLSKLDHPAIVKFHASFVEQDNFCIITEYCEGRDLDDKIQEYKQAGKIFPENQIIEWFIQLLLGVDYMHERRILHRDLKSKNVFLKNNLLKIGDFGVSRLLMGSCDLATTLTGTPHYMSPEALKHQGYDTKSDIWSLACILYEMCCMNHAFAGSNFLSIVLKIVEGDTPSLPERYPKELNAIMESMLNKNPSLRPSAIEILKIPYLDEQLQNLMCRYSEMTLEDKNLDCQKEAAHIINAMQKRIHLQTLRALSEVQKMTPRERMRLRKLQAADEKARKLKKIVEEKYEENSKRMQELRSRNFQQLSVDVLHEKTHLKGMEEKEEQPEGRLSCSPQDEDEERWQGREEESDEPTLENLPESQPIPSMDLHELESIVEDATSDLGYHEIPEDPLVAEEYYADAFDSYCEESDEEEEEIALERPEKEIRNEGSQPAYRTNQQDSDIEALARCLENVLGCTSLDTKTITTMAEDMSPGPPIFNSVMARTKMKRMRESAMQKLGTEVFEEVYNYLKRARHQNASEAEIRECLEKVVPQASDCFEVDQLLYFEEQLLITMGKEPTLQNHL

T4: Ron(h) (human, UniProt Q04912 983-1400, limits assumed)
T4 sequence (looked up): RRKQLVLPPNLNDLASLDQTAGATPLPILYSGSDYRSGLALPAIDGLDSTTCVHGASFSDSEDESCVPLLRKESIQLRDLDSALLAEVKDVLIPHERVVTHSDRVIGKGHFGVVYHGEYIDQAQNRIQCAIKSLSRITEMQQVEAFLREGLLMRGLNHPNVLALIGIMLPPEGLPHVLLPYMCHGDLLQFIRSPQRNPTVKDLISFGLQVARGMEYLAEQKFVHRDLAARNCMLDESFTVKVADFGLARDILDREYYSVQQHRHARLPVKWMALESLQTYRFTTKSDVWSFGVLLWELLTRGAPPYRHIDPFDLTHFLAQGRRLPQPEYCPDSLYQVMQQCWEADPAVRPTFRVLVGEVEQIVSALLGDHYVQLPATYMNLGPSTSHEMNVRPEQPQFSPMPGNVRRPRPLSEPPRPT

T5: NEK3(h) (human, UniProt P51956 1-506, limits assumed)
T5 sequence (looked up): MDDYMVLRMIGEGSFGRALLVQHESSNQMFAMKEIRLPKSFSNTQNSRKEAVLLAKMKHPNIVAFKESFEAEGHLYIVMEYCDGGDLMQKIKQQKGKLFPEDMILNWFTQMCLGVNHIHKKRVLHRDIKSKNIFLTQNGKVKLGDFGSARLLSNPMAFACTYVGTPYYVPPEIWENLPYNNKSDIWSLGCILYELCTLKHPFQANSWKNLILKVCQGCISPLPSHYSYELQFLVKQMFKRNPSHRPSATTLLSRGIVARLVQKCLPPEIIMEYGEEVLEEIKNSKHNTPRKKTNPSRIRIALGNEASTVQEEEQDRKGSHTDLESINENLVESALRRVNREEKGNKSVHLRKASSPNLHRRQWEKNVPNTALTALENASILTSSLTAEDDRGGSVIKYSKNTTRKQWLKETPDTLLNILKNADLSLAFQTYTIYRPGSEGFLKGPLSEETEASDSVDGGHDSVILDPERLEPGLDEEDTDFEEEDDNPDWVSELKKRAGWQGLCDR


How the values were obtained:
Assay in all cases: cell-based or functional assay
[1] = biological target: T1, EphA8(h)
[2] = biological target: T2, Ret(V804L)(h)
[3] = biological target: Pim-2(h) (human, UniProt Q9P1W9 1-311)
[4] = biological target: T3, NEK11(h)
[5] = biological target: Rsk2(h) (human, UniProt P51812 1-740)
[6] = biological target: MAPKAP-K2(h) (human, UniProt P49137 46-400)
[7] = biological target: T4, Ron(h)
[8] = biological target: BTK(R28H)(h) (human, UniProt Q06187 1-659)
[9] = biological target: MRCKα(h) (human, UniProt Q5VT25 1-473, limits assumed)
[10] = biological target: HIPK1(h) (human, UniProt Q86Z02 158-555, limits assumed)
[11] = biological target: T5, NEK3(h)

Sequence of MAPKAP-K2(h) (P49137 46-400 limits assumed): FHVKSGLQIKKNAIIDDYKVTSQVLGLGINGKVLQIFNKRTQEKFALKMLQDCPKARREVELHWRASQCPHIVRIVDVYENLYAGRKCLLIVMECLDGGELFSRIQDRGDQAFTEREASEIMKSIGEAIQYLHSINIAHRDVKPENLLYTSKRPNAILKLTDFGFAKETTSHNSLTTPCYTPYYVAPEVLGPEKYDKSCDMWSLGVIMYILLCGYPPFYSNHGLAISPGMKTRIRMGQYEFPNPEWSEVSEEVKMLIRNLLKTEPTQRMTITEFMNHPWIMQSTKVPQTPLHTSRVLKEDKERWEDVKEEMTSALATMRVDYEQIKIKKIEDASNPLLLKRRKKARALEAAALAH
Sequence of HIPK1(h) (Q86Z02 158-555 limits assumed): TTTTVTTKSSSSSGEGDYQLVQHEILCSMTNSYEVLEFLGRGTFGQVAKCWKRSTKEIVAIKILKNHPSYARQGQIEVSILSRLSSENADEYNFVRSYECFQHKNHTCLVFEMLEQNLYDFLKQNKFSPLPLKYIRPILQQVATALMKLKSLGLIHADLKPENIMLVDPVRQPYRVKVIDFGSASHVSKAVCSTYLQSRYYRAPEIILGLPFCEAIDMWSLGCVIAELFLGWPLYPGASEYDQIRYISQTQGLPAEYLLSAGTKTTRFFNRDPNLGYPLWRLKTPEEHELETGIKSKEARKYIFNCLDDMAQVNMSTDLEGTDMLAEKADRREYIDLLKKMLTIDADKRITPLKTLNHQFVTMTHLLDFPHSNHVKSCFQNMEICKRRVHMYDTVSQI
Sequence of BTK(R28H)(h) (Q06187 whole entry R28H): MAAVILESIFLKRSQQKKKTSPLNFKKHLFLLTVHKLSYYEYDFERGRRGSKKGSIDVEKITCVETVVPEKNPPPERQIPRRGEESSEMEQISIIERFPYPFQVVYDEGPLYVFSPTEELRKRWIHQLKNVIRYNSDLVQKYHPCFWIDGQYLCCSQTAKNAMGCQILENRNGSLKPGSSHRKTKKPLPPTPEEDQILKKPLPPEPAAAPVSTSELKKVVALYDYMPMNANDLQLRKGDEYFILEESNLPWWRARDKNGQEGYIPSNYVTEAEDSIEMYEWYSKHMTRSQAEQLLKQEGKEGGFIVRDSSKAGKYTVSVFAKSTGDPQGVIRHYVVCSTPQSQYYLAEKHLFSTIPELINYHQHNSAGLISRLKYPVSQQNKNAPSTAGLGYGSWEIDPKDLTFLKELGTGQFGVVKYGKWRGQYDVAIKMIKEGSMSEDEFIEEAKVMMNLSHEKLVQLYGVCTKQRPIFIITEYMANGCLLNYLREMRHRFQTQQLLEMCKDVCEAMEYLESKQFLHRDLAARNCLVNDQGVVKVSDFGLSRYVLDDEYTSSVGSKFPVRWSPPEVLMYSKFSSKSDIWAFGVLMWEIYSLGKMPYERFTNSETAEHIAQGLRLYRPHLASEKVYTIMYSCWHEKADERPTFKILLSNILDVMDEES
Sequence of Pim-2(h) (Q9P1W9 whole entry): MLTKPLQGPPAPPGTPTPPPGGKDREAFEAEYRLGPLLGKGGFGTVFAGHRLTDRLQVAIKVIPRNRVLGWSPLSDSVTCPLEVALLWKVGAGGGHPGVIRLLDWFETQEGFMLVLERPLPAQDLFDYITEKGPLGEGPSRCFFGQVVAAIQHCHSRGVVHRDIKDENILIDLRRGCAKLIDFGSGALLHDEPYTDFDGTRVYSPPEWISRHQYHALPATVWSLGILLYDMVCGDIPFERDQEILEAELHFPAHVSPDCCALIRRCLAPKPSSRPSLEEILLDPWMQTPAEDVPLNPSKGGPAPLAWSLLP
Sequence of MRCKα(h) (Q5VT25 1-473 limits assumed): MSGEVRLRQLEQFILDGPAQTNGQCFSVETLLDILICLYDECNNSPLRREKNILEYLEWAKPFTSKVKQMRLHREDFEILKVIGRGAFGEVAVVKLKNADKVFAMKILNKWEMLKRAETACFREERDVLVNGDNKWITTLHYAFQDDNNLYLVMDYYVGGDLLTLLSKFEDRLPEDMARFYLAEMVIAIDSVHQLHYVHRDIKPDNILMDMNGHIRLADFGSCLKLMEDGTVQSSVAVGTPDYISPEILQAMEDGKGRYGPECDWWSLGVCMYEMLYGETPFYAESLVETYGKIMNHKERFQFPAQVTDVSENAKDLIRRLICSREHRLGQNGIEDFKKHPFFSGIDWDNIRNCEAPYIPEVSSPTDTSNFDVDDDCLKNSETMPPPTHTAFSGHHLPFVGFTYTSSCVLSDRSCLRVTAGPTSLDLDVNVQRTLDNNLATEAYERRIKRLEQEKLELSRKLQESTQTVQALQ
Sequence of Rsk2(h) (P51812 whole entry): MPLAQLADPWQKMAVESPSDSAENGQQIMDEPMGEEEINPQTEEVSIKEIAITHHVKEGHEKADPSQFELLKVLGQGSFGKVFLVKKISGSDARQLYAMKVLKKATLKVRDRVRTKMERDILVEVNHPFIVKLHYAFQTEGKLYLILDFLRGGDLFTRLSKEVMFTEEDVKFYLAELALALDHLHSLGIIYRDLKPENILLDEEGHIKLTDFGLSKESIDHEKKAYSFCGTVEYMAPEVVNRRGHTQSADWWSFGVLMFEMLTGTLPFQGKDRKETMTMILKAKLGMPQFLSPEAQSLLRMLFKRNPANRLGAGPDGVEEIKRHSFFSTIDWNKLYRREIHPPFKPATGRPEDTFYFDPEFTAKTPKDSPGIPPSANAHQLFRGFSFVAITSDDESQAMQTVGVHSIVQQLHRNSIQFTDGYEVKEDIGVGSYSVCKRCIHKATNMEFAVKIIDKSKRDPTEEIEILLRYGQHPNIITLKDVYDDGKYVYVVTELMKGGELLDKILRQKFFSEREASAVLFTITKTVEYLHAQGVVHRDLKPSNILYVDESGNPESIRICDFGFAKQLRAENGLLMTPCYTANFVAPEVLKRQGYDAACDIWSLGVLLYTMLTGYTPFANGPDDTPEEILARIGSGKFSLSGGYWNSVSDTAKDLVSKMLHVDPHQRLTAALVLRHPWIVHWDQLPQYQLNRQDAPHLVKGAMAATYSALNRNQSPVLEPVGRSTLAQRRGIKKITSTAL

| Binder | % activity, 100 µM [1] | % activity, 100 µM [2] | % activity, 100 µM [3] | % activity, 100 µM [4] | % activity, 100 µM [5] | % activity, 100 µM [6] | % activity, 100 µM [7] | % activity, 100 µM [8] | % activity, 100 µM [9] | % activity, 100 µM [10] | % activity, 100 µM [11] |
| --- | --- | --- | --- | --- | --- | --- | --- | --- | --- | --- | --- |
| FAKLAARLYRKALARQLGVAA [MMI-0300] | 93% | 79% | 76% | 53% | 51% | 5% | 93% | 74% | 104% | 74% | 92% |
| KAFAKLAARLYRKALARQLGVAA [MMI-0400] | 146% | 73% | 92% | 33% | 38% | 5% | 79% | 24% | 97% | 91% | 85% |
